The target in series [1] is T1, Microcin C7 self-immunity protein MccF (Escherichia coli) (UniProt Q47511).
T1 sequence (whole entry): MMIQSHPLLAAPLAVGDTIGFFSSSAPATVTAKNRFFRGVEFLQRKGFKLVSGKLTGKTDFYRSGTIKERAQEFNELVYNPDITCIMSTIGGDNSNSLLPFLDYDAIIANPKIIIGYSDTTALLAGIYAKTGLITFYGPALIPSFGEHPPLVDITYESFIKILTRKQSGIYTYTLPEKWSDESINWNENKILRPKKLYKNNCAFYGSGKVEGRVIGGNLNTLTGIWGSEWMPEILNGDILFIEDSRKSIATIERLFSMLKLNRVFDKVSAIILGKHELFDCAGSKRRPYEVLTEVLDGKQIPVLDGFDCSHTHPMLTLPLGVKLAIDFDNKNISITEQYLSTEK
Kind of series: Ratio of compound Kcat/Km to ESA Kcat/Km for wild type Escherichia coli MccF expressed in Escherichia coli Rosetta2 (DE3).

Substrate in series [2]: N[C@@H](CCC(=O)O)C(=O)NS(=O)(=O)OC[C@H]1O[C@@H](n2cnc3c(=O)[nH]cnc32)[C@H](O)[C@@H]1O
Briefly: (§1) Substrate activity at wild type Escherichia coli MccF expressed in Escherichia coli Rosetta2 (DE3) by bovine glutamate dehydrogenase-coupled continuous assay.

Substrate in series [3]: Nc1nc2c(ncn2[C@@H]2O[C@H](COS(=O)(=O)NC(=O)[C@@H](N)CCC(=O)O)[C@@H](O)[C@H]2O)c(=O)[nH]1
Described as §1.

Substrate in series [4]: Nc1ncnc2c1ncn2[C@@H]1O[C@H](COS(=O)(=O)NC(=O)[C@@H](N)CCC(=O)O)[C@@H](O)[C@H]1O
The description is as §1.

Among the data in ChEMBL document CHEMBL3596158, “Exploring the substrate promiscuity of an antibiotic inactivating enzyme” (Medchemcomm, 2014) are Ratio, Km and kcat values, retold here.

As for `Nc1nc2c(ncn2[C@@H]2O[C@H](COS(=O)(=O)NC(=O)[C@@H](N)CCC(=O)O)[C@@H](O)[C@H]2O)c(=O)[nH]1`, in series [1], the Ratio came out at 1.5.

Turning to `N[C@@H](CCC(=O)O)C(=O)NS(=O)(=O)OC[C@H]1O[C@@H](n2cnc3c(=O)[nH]cnc32)[C@H](O)[C@@H]1O`, the Ratio in series [1] stood at 0.6.

B1: Microcin C7 self-immunity protein MccF (Escherichia coli), Q47511 (protein)
chain: T1 sequence (whole entry)
By Km is commonly meant the concentration of substrate that gives half-maximal velocity. For orientation: kcat means the number of substrate molecules converted per active site and unit of time at saturation. As for B1, the Km in series [2] is 90.9 µM; in series [3], 33.4 µM; in series [4] it was 51.6 µM. In addition, the kcat turned out to be 0.635 s⁻¹ in series [2], 0.582 s⁻¹ in series [3] and 0.583 s⁻¹ in series [4].
